Data as given in PMC9108626, “Mammalian UPF3A and UPF3B can activate nonsense‐mediated mRNA decay independently of their exon junction complex binding” (The EMBO Journal, 2022).

B1: FLAG‐tagged human UPF3A (stably expressed in 3^DKO#2 cells) (natural protein, UniProt Q9H1J1 1-476, looked up)
chain: MRSEKEGAGGLRAAVAARGPSGREKLSALEVQFHRDSQQQEAETPPTSSSGCGGGAGKPREEKRTALSKVVIRRLPPGLTKEQLEEQLRPLPAHDYFEFFAADLSLYPHLYSRAYINFRNPDDILLFRDRFDGYIFLDSKGLEYPAVVEFAPFQKIAKKKLRKKDAKTGSIEDDPEYKKFLETYCVEEEKTSANPETLLGEMEAKTRELIARRTTPLLEYIKNRKLEKQRIREEKREERRRRELEKKRLREEEKRRRREEERCKKKETDKQKKIAEKEVRIKLLKKPEKGEEPTTEKPKERGEEIDTGGGKQESCAPGAVVKARPMEGSLEEPQETSHSGSDKEHRDVERSQEQESEAQRYHVDDGRRHRAHHEPERLSRRSEDEQRWGKGPGQDRGKKGSQDSGAPGEAMERLGRAQRCDDSPAPRKERLANKDRPALQLYDPGARFRARECGGNRRICKAEGSGTGPEKREEAE
notes: UPF3A, human, CCDS9543.1; wild type; domains are defined over residues 2-476; cloned in pcDNA3ez-FLAG and moved to a Tet-ON PiggyBac plasmid; also called hUPF3A; FLAG‐UPF3A
B2: UPF3A (endogenous, HCT116) (natural protein, human (endogenous in HCT116), UniProt Q9H1J1 1-476, looked up)
chain: MRSEKEGAGGLRAAVAARGPSGREKLSALEVQFHRDSQQQEAETPPTSSSGCGGGAGKPREEKRTALSKVVIRRLPPGLTKEQLEEQLRPLPAHDYFEFFAADLSLYPHLYSRAYINFRNPDDILLFRDRFDGYIFLDSKGLEYPAVVEFAPFQKIAKKKLRKKDAKTGSIEDDPEYKKFLETYCVEEEKTSANPETLLGEMEAKTRELIARRTTPLLEYIKNRKLEKQRIREEKREERRRRELEKKRLREEEKRRRREEERCKKKETDKQKKIAEKEVRIKLLKKPEKGEEPTTEKPKERGEEIDTGGGKQESCAPGAVVKARPMEGSLEEPQETSHSGSDKEHRDVERSQEQESEAQRYHVDDGRRHRAHHEPERLSRRSEDEQRWGKGPGQDRGKKGSQDSGAPGEAMERLGRAQRCDDSPAPRKERLANKDRPALQLYDPGARFRARECGGNRRICKAEGSGTGPEKREEAE
notes: UPF3A, human, endogenous in HCT116 cells; source: endogenous, HCT116 lysate (WT, 3B^Δ2BD, 3B^KO cells)
B3: UPF3A (endogenous, UPF3B knockout HeLa Tet‐off) (natural protein, human (endogenous in HeLa), UniProt Q9H1J1 1-476, looked up)
chain: MRSEKEGAGGLRAAVAARGPSGREKLSALEVQFHRDSQQQEAETPPTSSSGCGGGAGKPREEKRTALSKVVIRRLPPGLTKEQLEEQLRPLPAHDYFEFFAADLSLYPHLYSRAYINFRNPDDILLFRDRFDGYIFLDSKGLEYPAVVEFAPFQKIAKKKLRKKDAKTGSIEDDPEYKKFLETYCVEEEKTSANPETLLGEMEAKTRELIARRTTPLLEYIKNRKLEKQRIREEKREERRRRELEKKRLREEEKRRRREEERCKKKETDKQKKIAEKEVRIKLLKKPEKGEEPTTEKPKERGEEIDTGGGKQESCAPGAVVKARPMEGSLEEPQETSHSGSDKEHRDVERSQEQESEAQRYHVDDGRRHRAHHEPERLSRRSEDEQRWGKGPGQDRGKKGSQDSGAPGEAMERLGRAQRCDDSPAPRKERLANKDRPALQLYDPGARFRARECGGNRRICKAEGSGTGPEKREEAE
notes: UPF3A, human, endogenous in HeLa Tet-off cells; source: endogenous, 3B^KO#3 HeLa Tet-off lysate
B4: UPF3B (endogenous, HeLa Tet‐off) (natural protein, human (endogenous in HeLa), UniProt Q9BZI7 1-483, looked up)
chain: MKEEKEHRPKEKRVTLLTPAGATGSGGGTSGDSSKGEDKQDRNKEKKEALSKVVIRRLPPTLTKEQLQEHLQPMPEHDYFEFFSNDTSLYPHMYARAYINFKNQEDIILFRDRFDGYVFLDNKGQEYPAIVEFAPFQKAAKKKTKKRDTKVGTIDDDPEYRKFLESYATDNEKMTSTPETLLEEIEAKNRELIAKKTTPLLSFLKNKQRMREEKREERRRREIERKRQREEERRKWKEEEKRKRKDIEKLKKIDRIPERDKLKDEPKIKVHRFLLQAVNQKNLLKKPEKGDEKELDKREKAKKLDKENLSDERASGQSCTLPKRSDSELKDEKPKRPEDESGRDYREREREYERDQERILRERERLKRQEEERRRQKERYEKEKTFKRKEEEMKKEKDTLRDKGKKAESTESIGSSEKTEKKEEVVKRDRIRNKDRPAMQLYQPGARSRNRLCPPDDSTKSGDSAAERKQESGISHRKEGGEE
notes: UPF3B, human, endogenous in HeLa Tet-off cells; source: endogenous, HeLa Tet-off lysate

Columns and labels:
Details in all cases: partners not purified
[1] = biological target: T1, EIF4A3 (endogenous, HCT116) (human (endogenous in HCT116), UniProt P38919 1-411); experiment: co-IP; EIF4A3-IP from 3^DKO#2 HCT116 cells stably expressing FLAG-tagged UPF3 proteins, UPF3A chimeras or EGFP; FLAG-tagged proteins quantified against EIF4A3; immunoblot
T1 construct: EIF4A3, human, core factor of the exon junction complex, endogenous in HCT116 cells; also called core EJC factor EIF4A3; source: endogenous, HCT116 lysate

[2] = biological target: T1, EIF4A3 (endogenous, HCT116); experiment: co-IP; EIF4A3-IP (antibody on protein-A Dynabeads; normal rabbit IgG as control) from WT and UPF3B mutant (3B^Δ2BD, 3B^KO) HCT116 lysates; 4°C, washes with 150 mM NaCl; immunoblot
[3] = biological target: T2, EIF4A3 (endogenous, HeLa Tet‐off) (human (endogenous in HeLa), UniProt P38919 1-411); experiment: co-IP; EIF4A3-IP (IgG-IP as control) from HeLa Tet-off cells and 3B^KO#3 HeLa Tet-off cells, with overexpression of CASC3 wild type or the HDAA mutant; immunoblot
T2 construct: EIF4A3, human, endogenous in HeLa Tet-off cells; also called EJC; source: endogenous, lysate of HeLa Tet-off and 3B^KO#3 HeLa Tet-off cells
T2 sequence (P38919 whole entry): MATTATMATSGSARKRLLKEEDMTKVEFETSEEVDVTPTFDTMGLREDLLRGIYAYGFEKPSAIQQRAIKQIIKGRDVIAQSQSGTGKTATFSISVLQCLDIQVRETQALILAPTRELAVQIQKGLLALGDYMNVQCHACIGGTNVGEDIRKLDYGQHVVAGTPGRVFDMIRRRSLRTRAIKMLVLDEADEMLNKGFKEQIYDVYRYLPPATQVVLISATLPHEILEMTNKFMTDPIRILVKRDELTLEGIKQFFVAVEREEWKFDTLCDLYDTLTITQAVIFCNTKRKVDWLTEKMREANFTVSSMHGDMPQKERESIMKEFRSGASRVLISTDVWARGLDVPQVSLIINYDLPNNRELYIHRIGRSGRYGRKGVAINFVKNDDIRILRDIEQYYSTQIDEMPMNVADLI

T1 sequence (P38919 whole entry): as above

Binder | fold increase of co-IP upon overexpression of wild-type CASC3 [3] [fold] | other results
B1 |  | fold weaker co-IP against UPF3B [1]: ~3 fold
B2 |  | fold increase of co-IP in UPF3B mutant cells over WT cells [2]: ~2 fold
B3 | 3 | 
B4 | 2.6 | 
